Data as given in the nanobody polyreactivity screen of Harvey et al. (2022).

Experiment: yeast display, Sf9 membrane polyspecificity reagent, FACS + sequencing; frameworks hold sequencing errors
Outline: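 Galactose-induced (36–48 hours) yeast carrying a synthetic nanobody display library were exposed to 10% biotinylated, detergent-solubilized Sf9 membrane reagent at 4 °C for 1 hour. FACS followed streptavidin microbead enrichment, using low and high (top ~1%) gates for expression (anti-HA) and reagent binding (streptavidin). Colony PCR, MiSeq 2 × 250 sequencing and CDR-length filtering followed. Labels for polyreactivity reflect the gate of origin.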

## QVLLVESGGGLVQAGGSLRLSCSASGITFEYYAMGWYRQAPGKERELVADIDTGGSTNYADSVKGRFTISRDNAKNTVYLQMNSLKPEDTAVYYCAADWSWWDAEDYHFEYDYWGQGTQVTVSS
  polyreactivity (PSR sort gate): low polyreactivity

## QVQLVESGGGLVQAGGSLRLSCAASGFIFNKYAMGWYRQAPGKERELVATIRRDGSTNYADSVKGRFTISRDNAKNTVYLQMNSQKPEDTAVYYCAVRPYYWSRDYYWGQGTQVTVSS
  polyreactivity (PSR sort gate): high polyreactivity

## QVQLVESGGGLVQAGGSLRLSCAASGSTFGWYAMGWDRQAPGKERELVAAIRNNDGRTYYADSVKGRFTISRDNAKNTVYLQMNSLKPEDTAVDYCNKRLDTVGWYHGYNYWGQGTQVTVSS
  polyreactivity (PSR sort gate): low polyreactivity

## QGQLVESGGGLVQAGGSLRLSCAACGSIFTYYTMGWYRQAPGKERELVAAIRWSAGRTYYADSVKGRFTISRDNAKNTVYLQMNSMKPEDTAVYYCAAAERLRHGLKFDYWGQGTQVTLSS
  polyreactivity (PSR sort gate): high polyreactivity

## QVQLVESGGGLVQAGGSLRLSCAASGRIFYSYAMGWYRQAPGKEWELVAVNTGGGRTYYADSVKGRFTISRDNAKNTVYLQMNSLKPEDTAVYYCAYRYGGTFRYDYWGQGTQVTVSS
  polyreactivity (PSR sort gate): high polyreactivity

## QVQLVESGGGLVQAGGSLRLSCAAYVFIFYVYAMGWYRQAHGKERELVAAISGGGDSTYYADSVKGRFTISRDNAKNTVYLQMNSLKPEDTAVYYCATRRYPEVVNGEYGYWGQGTQVTVSS
  polyreactivity (PSR sort gate): low polyreactivity

## QLQLQESGGGLVQAGGSLRLSCAESGTIFGWDRMGRYRQAPGKERELVATIDNRGSTNYADSVKGRFTISRDNAKNTLFPQMNSLKPDDTEVYYCAVVGPTPQYHLYWGEGTQVTVSS
  polyreactivity (PSR sort gate): high polyreactivity

## QVQLVESGGGLVQAGGSLRLSCAASGRTFSVNAMGWYRQAPGKERELVATITWSGSSTSYADSVKGRFTISRDNAKNSVDLQMNSLTPEDTAVYYCAADLWTLIYLTDTYGDWGQGTQVTVSS
  polyreactivity (PSR sort gate): low polyreactivity

## QVQLVESGGCLVQAGGSLRLSCAASGFTFGRNYMGWYRQAPGKEREFVASISGSGGRTYYADSVKGRFTISRDNAKNTVYLQMNSLQPEDTAVYYCAAYRYSAYLYWDEYGGQGTQVTVSS
  polyreactivity (PSR sort gate): high polyreactivity

## QVQLVESGGGLVQAGGSLRLSCAASGIIFYRNTMGWYRQAPGKERELVAAITSGGTTYADSVKGRFTISRDNAKNTVYLQMNSLKPEDTAVYYCATDYWYRGFEYEYWGQGTQVTVSS
  polyreactivity (PSR sort gate): high polyreactivity

## QVQLVESGGGLFQAGGSLRLSCAASGRIFGLYAMGWYRQAPGKERELVAAISRGGGSTYYADSVKGRFTISRDNAKNTVYLQMNSLKAEDTAFDFCATGLGYFCRLDYWGQGTQLTVSS
  polyreactivity (PSR sort gate): low polyreactivity

## QAQLQESGGSLVQAGGGLRLSCAASGYSSVGSVMGWYRQAPSKEREHVASIDQGANTNYADSVKGRFTISRDNAKNNVYLQMTSLKPEDTAVYYCATETTYILNYWGQGTQVTVSS
  polyreactivity (PSR sort gate): low polyreactivity

## QDQLVESGGGLVQAGGSLRLSCAASVSIFGSYAMGWYRQAPGKERELVAGITSSGGSTYYADSVKGRFTISRDNAKNTVYLQMNSLKPEDTAVYYCNAPLGWWQFYYCGQGTQVTVSS
  polyreactivity (PSR sort gate): high polyreactivity

## QVQLVESGGGLVQAGGSLRLSCAASGFTFAKYAMGWYRQAPGKERELVAAISSNGGTTYYADSVKGRFTISRDNAKNTDYLQMNSLKPEDTALYYCAAYTYRRPSTFTKVAFDYWGQGSQVTVSS
  polyreactivity (PSR sort gate): high polyreactivity

## QVQLVESGGGLVQAGGSLRLSCAASGSIFARNAMGWYRPAPGKERELVAVITTGGRTYYADSVKGRFTISRDNAKNTVYLQMNSLKPEDTAVYYCATRVIYGHSGGYWGQGTQVTVSS
  polyreactivity (PSR sort gate): high polyreactivity

## QVQLVESGGGLVQAGGSLRLSCAGSGHIFPYNAMGWYRQGPGKEREFVAAISFRGGSRYYADSEKGRFTISRDNAKNTVYLQMNSLKPEDTAVYYCAKRSYPWGQGTQVTVSS
  polyreactivity (PSR sort gate): low polyreactivity

## QVQLVESGGGLVQAGGTLRLSCAASGRISAFNAMGWYRQAPGKERELVAAIHVSGGNTYYADSVKGRFTISRDNAKNTVYLQMNSLKPEDTAVYYCAAERRRWGVDYYYWGQGTQVTVST
  polyreactivity (PSR sort gate): high polyreactivity

## QDQLEESGGGLVQAGGSLRLSCAASVRTFRDNAMGWSRQATGKQRQLVAAITQSGASTFYADSVKGRFTISRDNAKNSVYLQMNSLKADDTAVYYCAALRRQGRYVYGYWGQGTQVTVSS
  polyreactivity (PSR sort gate): high polyreactivity

## QVQLVESGGGLVQAGGSLRLSCAASGSTFRRNAMGWYRQAPGKERELVASISFSGGSTFYADSVKGRFTISRDNAKNTVYLQMNSLKPEDTAVYYCATRYYYSSYEYWGQGTQVTVSS
  polyreactivity (PSR sort gate): high polyreactivity

## QVQLVESGGGLVQAGGSLRLSCAASGSTFPYYVMGWYRQAPGKERELVATITNSGGSTYYADSVKGRFTISRDNAKNTVYLQMNSLKPEDTAVYYCAAVYWYGLYHRYYYWGQGTQVTVSS
  polyreactivity (PSR sort gate): low polyreactivity

## QVQLVESGGGLVQAGGSLRLSCAASGRTFRENAMGSSRPAPGKERELVAAIRRSGGRTYYADSVKGRFTISRDNAKNTVYLQMHSLKPEDTAVSDCIAVADGYAFRRPYVTYYYWGQGTQVTVSS
  polyreactivity (PSR sort gate): low polyreactivity

## QVQLVETGGGLVQAGGSLRLSCAASGITFPYYAMGWYRQAPGKERELVDAITIRSGRTYYADSVKGRFTISRDNAKNTFYLQMNSLIPEDTAVYYCAARLSNTYGYWGQGTQVTVSS
  polyreactivity (PSR sort gate): high polyreactivity

## QVQLLESGGGLVQAGGSLRLTCAASGSTFSPNAMGWYRQAPGKERELVAAITYRGANTYYADSVKGRFTISRDNAKITVYLQMNSLKPEDTAVYYCDAEYAYHHVGFGYWGQGTQVTVSS
  polyreactivity (PSR sort gate): low polyreactivity

## QVQLVESGGGLVQAGGSLRLSCAASGFTFVDNAMGWYRQAPGKERELVAVIDFNDGTTYYADSVKGRFTISRDNAKNSVYLQMNSLKPEDTEVYYCNVDSSLILWVEYDYWGQGTQVTVSS
  polyreactivity (PSR sort gate): low polyreactivity

## QVQHVESGGGLVQAGGSLRLSCAPSGITFYTYTMGWYRQAHGKERQLVAVISASGARTYYADSVKGRFTISRDNAKNTVYLQMNSLKPEDTAVYYCAARSYFISPWRFDYWGQGTQVTVSS
  polyreactivity (PSR sort gate): high polyreactivity

## QVQLVESGGGLVQAGGSLRLSCAASGFTSTLNDMGWYRQAPGKERELVAAISNGGSTYYADSVKGRFTISRDNAKNTVYLQMNSLKPEDTAVYYCAVTATAPQEGDYWGQGTQVTVSS
  polyreactivity (PSR sort gate): low polyreactivity

## QVQLVESGGGLVKAGGSLRLSCAASGSIFKSNAMGWYRQAPGKEWELVAAISDSGGSTYYADSVKGRFTISRDNAKNTVYLQMNSLKPEDTAVYYCNADWSWYNYYDFDYWGQGTQVTVSS
  polyreactivity (PSR sort gate): low polyreactivity

## QVQLVESGGGLVQAGGSLRLSCAASGNTFQYYAMGWYRQAPGKEREFVAAISRRGGSTYYADSVKGRFTISRDNAKNTVYLQMNSLKPEDTAVYYCNKVIFLSQSSYSFHYAYDYWGQGTQVTVSS
  polyreactivity (PSR sort gate): high polyreactivity

## QVQLVESGGGLVQAGGSLRISCAASGYTSIIYAMGWYRQAPGTERECVASIRGRSGSTYYADSVKGRFTISRDNAKNTVYLQMNSLKPEDTAVYYCAARARYVNWQGFDYWGQGTQVTVSS
  polyreactivity (PSR sort gate): high polyreactivity

## QVQLVESGGGLVQAGGSLRLSCAASGSISSVNVMGWYRQAPGKERELVAAISSGTSTHYADSVKGRFTISRDNAKNTVYLQMNSLKPEVTAVYYCNKTSFLVKLDYWGQGTQVTVSS
  polyreactivity (PSR sort gate): low polyreactivity

## QVQLVESGGGLVQAGGSLRLSCAASGRIYRYAIGWYRQAPGKERELVASISYSGGSTYYADSVNGRFTISRDNAKNTVYLQMNSLKPEDTAVYYCAARTRHVHYGDWGQGTQVTVSS
  polyreactivity (PSR sort gate): high polyreactivity

## QVQLVESGGGLVQAGGSLRLSCAASGFILLYYAMGWYRQAPGKERELVAAISWTGGRTYYADSVKGRFTISRDNAKNTVYLQMNSLKPEDTAVYYCNTVKFFGRKYGYWGQGTQVTVSS
  polyreactivity (PSR sort gate): low polyreactivity

## QVQLVESGGGLVQAGGSLRLSCAPSGLIIWDYVMGWYRQAPGKERELVAAISRSGGRTYYADSVKGRFTISRDNAKNTVYLQMNSLKPEDTAVYYCAARVRFSYASRSGYWGQGTQVTVSS
  polyreactivity (PSR sort gate): high polyreactivity

## QVQLVESGGGLVQAGGSLRLSCAASGSTFPLYVMGWYRQSPGKERELVAAIDWSGGSTYYADSVKGRFTISRDNAKNTVFLQMNSLKPVDTAVYYCNRKRYGYDYEYWGQGTQVTVSS
  polyreactivity (PSR sort gate): low polyreactivity

## QVQLVESGGGLVQAGGSLSLSCAATGSIFLHNAMGWYRQAPGKERELVAVITSRGGSTYYADSVKGRFTISRDNAKNTVYLQMNSLKPEDTAVYYCAAPAYHKRTSRGDYWGQGTQVTVSS
  polyreactivity (PSR sort gate): low polyreactivity

## QVQLVESGGGLVQAGGSLRLSCAASGFIFSAYAMGWYRQAPGKERELVAAITKRGGTTYYADSVKGRFTISRDNAKNTVYLQMNSLKPEDTAVYYCATRQLSKVKDMDYWGQGTQVTVSS
  polyreactivity (PSR sort gate): high polyreactivity

## QVQLVESGGGLVQAGGSLRLSCAASGRTFRYYAMGWYRQAPGKERELVAAISRRGGSTFYADSVKGRFTISRDNAKNTVYLQMNSLKPEDTAVYYCAAADRYASDTGGYWGQGTQVTVSS
  polyreactivity (PSR sort gate): high polyreactivity

## QVQLVESGGGLVQAGGSLRLSCAASGRIFQPYAMGWYRPAPGKDRELVAAITRRAGSTYYADSVKGRFTISRDNAKYTVYLQMNSLKPEDTAVYYCAARGLYWAYEMEYWGQGTQVTVSS
  polyreactivity (PSR sort gate): low polyreactivity

## QVQLVESGGCLVQAGGSLRLSCYASGSIFVDKAMGWFRQPPGKERELVAAITDSGGRTYYADSVKGRFTISRDNAKNTVYLQKNSLKPEDTAVYYCAAGQSGYAGRRPAFGSWGQGTQVTVSS
  polyreactivity (PSR sort gate): low polyreactivity

## QDQLVESGGGLVQAGGSLRLSCAASGFTFARNGMGWYRQAPVKEREFVAAITRSGGRTYYADSVKGRFTISRDNAKNTVYLQMNSLKPQDTAVYYCAAATSYGKSEYDYWGQGTQVTVSS
  polyreactivity (PSR sort gate): high polyreactivity

## QVQLVESGGGLVQAGGSLRLSCAASGSTFKWYAMGWYRQAPGKERELVAGISWTGASTYYADSVKGRFTISRDNAKNTVYLQMNSLKPDDTAVYYCAADRTYFALLWTGRARYDYWGQGTQVTVSS
  polyreactivity (PSR sort gate): high polyreactivity

## QVQLVESGGGLVQAGGSLRLSCAASGFTFYYYAMGWYRQAPGKERELVASISWRGGSTYYADSVKGRFTISRDNAKNTVYLQMNSLKPEDTAVFYCAAQKRGSPGYRRDYWGQGTQVTVSS
  polyreactivity (PSR sort gate): high polyreactivity

## QVQLVESGGGLVQAGGSHRLSCAASGRILVRYAMGCYRHAPGKERELVAAISRGGSTTYADSVKGRFTISRDNAKNTVYLQMNSLKPEDTAFYYCAAGRYPYNRDYWGQGTQVTVSS
  polyreactivity (PSR sort gate): high polyreactivity
